Earlier results, collected in publication PMC2871139.
pKd: −log10 of the molar value. Like-named read-outs stand apart in the source and are kept apart here. Each block holds one substance with its values, some of them ahead of it.

Columns and labels:
A1 [1] = target: A1 (UniProt Q07440)
A1 [2] = target: A1 (UniProt Q07440); remark: listed apart in the source
A1 [3] = target: A1 (UniProt Q07440); remark: listed apart in the source
A1 [4] = target: A1 (UniProt Q07440); remark: listed apart in the source

UniProt Q07440, sequence (Q07440 whole entry): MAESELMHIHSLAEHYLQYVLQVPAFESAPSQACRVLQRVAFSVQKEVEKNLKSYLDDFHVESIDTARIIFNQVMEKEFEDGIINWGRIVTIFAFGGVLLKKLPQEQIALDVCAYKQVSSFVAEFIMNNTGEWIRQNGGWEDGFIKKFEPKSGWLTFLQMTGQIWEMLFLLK

pKd (A1 [1]): > 8.52
Substance: Bak BH3 (from UniProt O08734)

pKd (A1 [2]): > 8.52
Substance: Puma BH3 (from UniProt Q9BXH1)

pKd (A1 [3]): 6.74
Substance: Bmf BH3 (from UniProt Q91ZE9)

pKd (A1 [4]): > 8.52
Substance: Bid BH3 (from UniProt P70444)
